The target of experiment [1] is EGFR on EGFR positive non-small cell lung cancer cells NCI-H1650 (UniProt P00533 25-1210). In words: cell-based or functional assay.
Experiment [2] deals with human EGFR (huEGFR) over-expressed on mcl-1-/- mouse embryonic fibroblasts (human, UniProt P00533 25-1210). In words: cell-based or functional assay.

B1: AbG-XW (antibody, human IgG1, kappa, V domains shown)
VH: EVQLQESGPGLVKPSQTLSLTCTVSGYSISNDFAWNWIRQLPGKGLEWMGYISYKGNTRYQPSLKSRITISRDTSKNQFFLKLNSVTAADTATYYCVTASRGLPYWGQGTLVTVSS
VL: DIQMTQSPSSMSVSVGDRVTITCHSSQDITYNIGWLQQKPGKSFKGLIYHGANLDDGVPSRFSGSGSGTDYTLTISSLQPEDFATYYCVQYDEFPWTFGGGTKLEIKR
modifications: synthon XW on reduced interchain cysteines; average DAR 3.7 per ADC
For the molecule B1, in experiment [1], the “H1650 CTG-3D EC50” value was greater than 40 µg/mL and the “H1650 GFP Flourescence EC50” value is greater than 40 µg/mL. For the same molecule, the “huEGFR+ mcl-1-/- MEF EC50” value in experiment [2] amounted to 19 nM.

B2: AbK-XW (antibody, human IgG1, kappa, V domains shown)
VH: EVQLQESGPGLVKPSQTLSLTCTVSGYSISRDFAWNWIRQPPGKGLEWMGYISYNGNTRYQPSLKSRITISRDTSKNQFFLKLNSVTAADTATYYCVTASRGFPWWGQGTLVTVSS
VL: DIQMTQSPSSMSVSVGDRVTITCHSSQDITYNVGWLQQKPGKSFKGLIYHGSNLDHGVPSRFSGSGSGTDYTLTISSLQPEDFATYYCVQYDDFPWTFGGGTKLEIKR
modifications: synthon XW on reduced interchain cysteines; average DAR 2.8 per ADC
Take B2: in experiment [1], the “H1650 CTG-3D EC50” value was greater than 40 µg/mL and the “H1650 GFP Flourescence EC50” value was determined as 8.53 µg/mL. Further, in experiment [2], the “huEGFR+ mcl-1-/- MEF EC50” value came out at 0.6 nM.

B3: AbG-SR (antibody, human IgG1, kappa, V domains shown)
VH: EVQLQESGPGLVKPSQTLSLTCTVSGYSISNDFAWNWIRQLPGKGLEWMGYISYKGNTRYQPSLKSRITISRDTSKNQFFLKLNSVTAADTATYYCVTASRGLPYWGQGTLVTVSS
VL: DIQMTQSPSSMSVSVGDRVTITCHSSQDITYNIGWLQQKPGKSFKGLIYHGANLDDGVPSRFSGSGSGTDYTLTISSLQPEDFATYYCVQYDEFPWTFGGGTKLEIKR
modifications: synthon SR on reduced interchain cysteines; average DAR 2.8 per ADC
In the case of B3, in experiment [1], the “H1650 CTG-3D EC50” value was 1.31 µg/mL and the “H1650 GFP Flourescence EC50” value came out at 1.38 µg/mL. In addition, the “huEGFR+ mcl-1-/- MEF EC50” value in experiment [2] worked out at 7 nM.

B4: AbG-SE (antibody, human IgG1, kappa, V domains shown)
VH: EVQLQESGPGLVKPSQTLSLTCTVSGYSISNDFAWNWIRQLPGKGLEWMGYISYKGNTRYQPSLKSRITISRDTSKNQFFLKLNSVTAADTATYYCVTASRGLPYWGQGTLVTVSS
VL: DIQMTQSPSSMSVSVGDRVTITCHSSQDITYNIGWLQQKPGKSFKGLIYHGANLDDGVPSRFSGSGSGTDYTLTISSLQPEDFATYYCVQYDEFPWTFGGGTKLEIKR
modifications: synthon SE on reduced interchain cysteines; average DAR 3.8 per ADC
In the case of B4, in experiment [1], the “H1650 CTG-3D EC50” value stood at 0.96 µg/mL and the “H1650 GFP Flourescence EC50” value was determined as 0.99 µg/mL. The “huEGFR+ mcl-1-/- MEF EC50” value in experiment [2] is 24 nM.

B5: AbA-AAD (antibody, human IgG1, kappa, V domains shown)
VH: EVQLQESGPGLVKPSQTLSLTCTVSGYSISRDFAWNWIRQPPGKGLEWMGYISYNGNTRYQPSLKSRITISRDTSKNQFFLKLNSVTAADTATYYCVTASRGFPYWGQGTLVTVSS
VL: DIQMTQSPSSMSVSVGDRVTITCHSSQDINSNIGWLQQKPGKSFKGLIYHGTNLDDGVPSRFSGSGSGTDYTLTISSLQPEDFATYYCVQYAQFPWTFGGGTKLEIKR
modifications: synthon AAD on reduced interchain cysteines; average DAR 3.3 per ADC
As to B5, in experiment [1], the “H1650 CTG-3D EC50” value is 0.79 µg/mL and the “H1650 GFP Flourescence EC50” value is 0.36 µg/mL. The “huEGFR+ mcl-1-/- MEF EC50” value in experiment [2] is 65 nM.

B6: AbK-YG (antibody, human IgG1, kappa, V domains shown)
VH: EVQLQESGPGLVKPSQTLSLTCTVSGYSISRDFAWNWIRQPPGKGLEWMGYISYNGNTRYQPSLKSRITISRDTSKNQFFLKLNSVTAADTATYYCVTASRGFPWWGQGTLVTVSS
VL: DIQMTQSPSSMSVSVGDRVTITCHSSQDITYNVGWLQQKPGKSFKGLIYHGSNLDHGVPSRFSGSGSGTDYTLTISSLQPEDFATYYCVQYDDFPWTFGGGTKLEIKR
modifications: synthon YG on reduced interchain cysteines; average DAR 0.9 per ADC
On to B6, for which, in experiment [1], the “H1650 CTG-3D EC50” value worked out at 12.3 µg/mL and the “H1650 GFP Flourescence EC50” value was 10.4 µg/mL. Moreover, in experiment [2], the “huEGFR+ mcl-1-/- MEF EC50” value is 37 nM.

B7: AbK-ZZ (antibody, human IgG1, kappa, V domains shown)
VH: EVQLQESGPGLVKPSQTLSLTCTVSGYSISRDFAWNWIRQPPGKGLEWMGYISYNGNTRYQPSLKSRITISRDTSKNQFFLKLNSVTAADTATYYCVTASRGFPWWGQGTLVTVSS
VL: DIQMTQSPSSMSVSVGDRVTITCHSSQDITYNVGWLQQKPGKSFKGLIYHGSNLDHGVPSRFSGSGSGTDYTLTISSLQPEDFATYYCVQYDDFPWTFGGGTKLEIKR
modifications: synthon ZZ on reduced interchain cysteines; average DAR 1.9 per ADC
Consider B7, for which, in experiment [1], the “H1650 CTG-3D EC50” value stood at 0.03 µg/mL and the “H1650 GFP Flourescence EC50” value stood at 0.16 µg/mL. Moreover, the “huEGFR+ mcl-1-/- MEF EC50” value in experiment [2] is 45 nM.

B8: AbK-SR (antibody, human IgG1, kappa, V domains shown)
VH: EVQLQESGPGLVKPSQTLSLTCTVSGYSISRDFAWNWIRQPPGKGLEWMGYISYNGNTRYQPSLKSRITISRDTSKNQFFLKLNSVTAADTATYYCVTASRGFPWWGQGTLVTVSS
VL: DIQMTQSPSSMSVSVGDRVTITCHSSQDITYNVGWLQQKPGKSFKGLIYHGSNLDHGVPSRFSGSGSGTDYTLTISSLQPEDFATYYCVQYDDFPWTFGGGTKLEIKR
modifications: synthon SR on reduced interchain cysteines; average DAR 2.3 per ADC
Consider B8, for which, in experiment [1], the “H1650 CTG-3D EC50” value turned out to be 1.74 µg/mL and the “H1650 GFP Flourescence EC50” value is 1.36 µg/mL. Besides, the “huEGFR+ mcl-1-/- MEF EC50” value in experiment [2] was determined as 8.9 nM.

B9: AbG-YG (antibody, human IgG1, kappa, V domains shown)
VH: EVQLQESGPGLVKPSQTLSLTCTVSGYSISNDFAWNWIRQLPGKGLEWMGYISYKGNTRYQPSLKSRITISRDTSKNQFFLKLNSVTAADTATYYCVTASRGLPYWGQGTLVTVSS
VL: DIQMTQSPSSMSVSVGDRVTITCHSSQDITYNIGWLQQKPGKSFKGLIYHGANLDDGVPSRFSGSGSGTDYTLTISSLQPEDFATYYCVQYDEFPWTFGGGTKLEIKR
modifications: synthon YG on reduced interchain cysteines; average DAR 3.7 per ADC
On to B9, for which, in experiment [1], the “H1650 CTG-3D EC50” value stood at 1.24 µg/mL and the “H1650 GFP Flourescence EC50” value stood at 0.63 µg/mL. In addition, the “huEGFR+ mcl-1-/- MEF EC50” value in experiment [2] came to 1 nM.

B10: AbK-ZT (antibody, human IgG1, kappa, V domains shown)
VH: EVQLQESGPGLVKPSQTLSLTCTVSGYSISRDFAWNWIRQPPGKGLEWMGYISYNGNTRYQPSLKSRITISRDTSKNQFFLKLNSVTAADTATYYCVTASRGFPWWGQGTLVTVSS
VL: DIQMTQSPSSMSVSVGDRVTITCHSSQDITYNVGWLQQKPGKSFKGLIYHGSNLDHGVPSRFSGSGSGTDYTLTISSLQPEDFATYYCVQYDDFPWTFGGGTKLEIKR
modifications: synthon ZT on reduced interchain cysteines; average DAR 1.3 per ADC
In the case of B10, in experiment [1], the “H1650 CTG-3D EC50” value was found to be 0.05 µg/mL and the “H1650 GFP Flourescence EC50” value is 0.12 µg/mL. The “huEGFR+ mcl-1-/- MEF EC50” value in experiment [2] was determined as 0.2 nM.

B11: AbK-KZ (antibody, human IgG1, kappa, V domains shown)
VH: EVQLQESGPGLVKPSQTLSLTCTVSGYSISRDFAWNWIRQPPGKGLEWMGYISYNGNTRYQPSLKSRITISRDTSKNQFFLKLNSVTAADTATYYCVTASRGFPWWGQGTLVTVSS
VL: DIQMTQSPSSMSVSVGDRVTITCHSSQDITYNVGWLQQKPGKSFKGLIYHGSNLDHGVPSRFSGSGSGTDYTLTISSLQPEDFATYYCVQYDDFPWTFGGGTKLEIKR
modifications: synthon KZ on reduced interchain cysteines; average DAR 2.3 per ADC
Regarding B11, in experiment [1], the “H1650 CTG-3D EC50” value is greater than 40 µg/mL and the “H1650 GFP Flourescence EC50” value was greater than 40 µg/mL. For the same molecule, the “huEGFR+ mcl-1-/- MEF EC50” value in experiment [2] was 224 nM.

B12: AbG-KZ (antibody, human IgG1, kappa, V domains shown)
VH: EVQLQESGPGLVKPSQTLSLTCTVSGYSISNDFAWNWIRQLPGKGLEWMGYISYKGNTRYQPSLKSRITISRDTSKNQFFLKLNSVTAADTATYYCVTASRGLPYWGQGTLVTVSS
VL: DIQMTQSPSSMSVSVGDRVTITCHSSQDITYNIGWLQQKPGKSFKGLIYHGANLDDGVPSRFSGSGSGTDYTLTISSLQPEDFATYYCVQYDEFPWTFGGGTKLEIKR
modifications: synthon KZ on reduced interchain cysteines; average DAR 2.7 per ADC
On to B12, for which, in experiment [1], the “H1650 CTG-3D EC50” value is 38.3 µg/mL and the “H1650 GFP Flourescence EC50” value came to 38.2 µg/mL. Moreover, the “huEGFR+ mcl-1-/- MEF EC50” value in experiment [2] worked out at 96 nM.

B13: AbK-SE (antibody, human IgG1, kappa, V domains shown)
VH: EVQLQESGPGLVKPSQTLSLTCTVSGYSISRDFAWNWIRQPPGKGLEWMGYISYNGNTRYQPSLKSRITISRDTSKNQFFLKLNSVTAADTATYYCVTASRGFPWWGQGTLVTVSS
VL: DIQMTQSPSSMSVSVGDRVTITCHSSQDITYNVGWLQQKPGKSFKGLIYHGSNLDHGVPSRFSGSGSGTDYTLTISSLQPEDFATYYCVQYDDFPWTFGGGTKLEIKR
modifications: synthon SE on reduced interchain cysteines; average DAR 2.7 per ADC
B13: in experiment [1], the “H1650 CTG-3D EC50” value stood at 2.67 µg/mL and the “H1650 GFP Flourescence EC50” value amounted to 1.68 µg/mL. For the same molecule, in experiment [2], the “huEGFR+ mcl-1-/- MEF EC50” value was found to be 161 nM.

The values are drawn from US20240199745A1, “ANTI-EGFR ANTIBODY DRUG CONJUGATES” (priority 2016, published 2024).
